The record followed here is paper PMC12381745.

Test [1] deals with LHD101B-αLux. As to the kind of experiment: split reporter (BiFC, NanoBiT); time-course luminescence; protein-linker-RNA conjugate of A and protein B preincubated until a baseline signal, then RNase A added manually after 30 min; S/B = maximum signal after RNA cleavage divided by the baseline signal.
Test [2] has as its target LHD101B-αLux. As to the kind of experiment: split reporter (BiFC, NanoBiT); protein-linker conjugates of protein A with protein B in solution; luminescence relative to the naked cysteine mutant (Figure 2c).
The target in test [3] is LHD101B-αLux. As to the kind of experiment: split reporter (BiFC, NanoBiT); 96-well plate; 2.5 nM BC10 and 2.5 nM B protein with preincubated 100 nM Cas13 and 50 nM crRNA1 in 1x HBS-EP+ buffer, 50 μM LuxSit Pro Substrate; target RNA added after 5 min of baseline; 1 h at room temperature.

B1: LHD101A-βit I61C-L1-RNA protein-linker-RNA conjugate (designed binder)
chain: SELAVVAAIISAVARMGVKMELHPSGNEVKVVIKGLHIKQQRQLYRDVREAAKKAGVEVECEVEGDTVTIVVRG
modifications: here or on the partner: cysteine 61 joined by thiol-maleimide Michael addition to linker L1, whose DBCO is joined by SPAAC to the azide-functionalised 17mer RNA conjRNA1
On to B1, for which, in the test with LHD101B-αLux [1], the S/B change (maximum signal after RNA cleavage by RNase A divided by the baseline signal with intact RNA) was over 1.3.

B2: LHD101A-βit E60C-L2 protein-linker conjugate (designed binder)
chain: SELAVVAAIISAVARMGVKMELHPSGNEVKVVIKGLHIKQQRQLYRDVREAAKKAGVEVCIEVEGDTVTIVVRG
modifications: here or on the partner: cysteine 60 joined by thiol-maleimide Michael addition to linker L2 (maleimide-DBCO, longer, more flexible)
In the test with LHD101B-αLux [2], B2 came in with a luminescence signal relative to the naked cysteine mutant of over 20%.

B3: LHD101A-βit E60C-L1 protein-linker conjugate (designed binder)
chain: SELAVVAAIISAVARMGVKMELHPSGNEVKVVIKGLHIKQQRQLYRDVREAAKKAGVEVCIEVEGDTVTIVVRG
modifications: here or on the partner: cysteine 60 joined by thiol-maleimide Michael addition to linker L1 (maleimide-DBCO, shorter, more rigid)
On to B3, for which the luminescence signal relative to the naked cysteine mutant with LHD101B-αLux [2] is over 20%.

B4: LHD101A-βit G65C-L2-RNA protein-linker-RNA conjugate (designed binder)
chain: SELAVVAAIISAVARMGVKMELHPSGNEVKVVIKGLHIKQQRQLYRDVREAAKKAGVEVEIEVECDTVTIVVRG
modifications: here or on the partner: cysteine 65 joined by thiol-maleimide Michael addition to linker L2, whose DBCO is joined by SPAAC to the azide-functionalised 17mer RNA conjRNA1
B4 yielded a S/B change (maximum signal after RNA cleavage by RNase A divided by the baseline signal with intact RNA) in the test with LHD101B-αLux [1] of over 1.3.

B5: LHD101A-βit G65C-L1-RNA protein-linker-RNA conjugate (designed binder)
chain: SELAVVAAIISAVARMGVKMELHPSGNEVKVVIKGLHIKQQRQLYRDVREAAKKAGVEVEIEVECDTVTIVVRG
modifications: here or on the partner: cysteine 65 joined by thiol-maleimide Michael addition to linker L1, whose DBCO is joined by SPAAC to the azide-functionalised 17mer RNA conjRNA1
In the test with LHD101B-αLux [1], B5 came in with a S/B change (maximum signal after RNA cleavage by RNase A divided by the baseline signal with intact RNA) of over 1.3.

B6: LHD101A-βit E62C-L2-RNA protein-linker-RNA conjugate (designed binder)
chain: SELAVVAAIISAVARMGVKMELHPSGNEVKVVIKGLHIKQQRQLYRDVREAAKKAGVEVEICVEGDTVTIVVRG
modifications: here or on the partner: cysteine 62 joined by thiol-maleimide Michael addition to linker L2, whose DBCO is joined by SPAAC to the azide-functionalised 17mer RNA conjRNA1
On to B6, for which, in the test with LHD101B-αLux [1], the S/B change (maximum signal after RNA cleavage by RNase A divided by the baseline signal with intact RNA) turned out to be 1.89.

B7: LHD101A-βit I61C-L2-RNA protein-linker-RNA conjugate (designed binder)
chain: SELAVVAAIISAVARMGVKMELHPSGNEVKVVIKGLHIKQQRQLYRDVREAAKKAGVEVECEVEGDTVTIVVRG
modifications: here or on the partner: cysteine 61 joined by thiol-maleimide Michael addition to linker L2, whose DBCO is joined by SPAAC to the azide-functionalised 17mer RNA conjRNA1
The molecule B7 displayed a S/B change (maximum signal after RNA cleavage by RNase A divided by the baseline signal with intact RNA) with LHD101B-αLux [1] of over 1.3.

B8: LHD101A-βit E62C-L1-RNA protein-linker-RNA conjugate (designed binder)
chain: SELAVVAAIISAVARMGVKMELHPSGNEVKVVIKGLHIKQQRQLYRDVREAAKKAGVEVEICVEGDTVTIVVRG
modifications: here or on the partner: cysteine 62 joined by thiol-maleimide Michael addition to linker L1, whose DBCO is joined by SPAAC to the azide-functionalised 17mer RNA conjRNA1
As to B8, the maximum S/B ratio (signal after RNA cleavage by activated Cas13 divided by the baseline signal with intact RNA) in the test with LHD101B-αLux [3] stood at 1.6. In the test with LHD101B-αLux [1], this molecule displayed a S/B change (maximum signal after RNA cleavage by RNase A divided by the baseline signal with intact RNA) of 2 and a maximum luminescence signal after RNA cleavage by RNase A of 100000 RLU.
